# Assay results published in patent US12331106B2, “Anti-angiopoietin-2 antibodies that induce Tie2 activation” (Institute for Basic Science, priority 2018, dated 2025).
# Where two headings read alike, the source gives them in different places.
# T1: hAng2-RBD (Homo sapiens, UniProt O15123)
# T1 construct: made in house; host or cells: HEK293F
# T1 sequence (O15123 276-496): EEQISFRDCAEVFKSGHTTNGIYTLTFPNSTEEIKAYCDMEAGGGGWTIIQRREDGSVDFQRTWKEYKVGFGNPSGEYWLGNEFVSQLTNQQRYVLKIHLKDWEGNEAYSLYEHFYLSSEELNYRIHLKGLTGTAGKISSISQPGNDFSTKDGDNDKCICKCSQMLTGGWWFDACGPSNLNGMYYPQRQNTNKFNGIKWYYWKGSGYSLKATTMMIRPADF
# B1: 2C8: mouse monoclonal anti-Ang2 antibody; VH SEQ ID NO: 19, VL SEQ ID NO: 21; hybridoma KCLRF-BP-00417 (antibody, V domains shown)
# VH: QVQLQQSGPQLVRPGASVKISCKASGYSFTSYWMHWVKQRPGQGLEWIGMIDPSDSETRLNQKFKDKASLTVDKSSSTAYMQLSSPTSGDSAVYYCARRFYYGSDWYFDVWGAGSTVTVSS
# VL: DIVMTQSHKFMSTSVGDRVSITCKASQDVGTAVAWYQQKPGQSPKLLIYWASTRHTGVPDRFTGSGSGTDFTLTISNVQSEDLADYFCQQYSSYPLTFGSGTKLEIK
# modifications: Heavy Chain Variable Region; Light Chain Variable Region
# notes: mouse monoclonal anti-Ang2 antibody; hybridoma KCLRF-BP-00417
# Molecular target: T1, hAng2-RBD
# Format: binding
# Conditions: for Relative Uptake (Da) Δ: 2C8
# Experimental: The antigenic determinants (epitopes) of hAng2 recognized by mouse monoclonal antibodies, 2C8 and 4B9, were analyzed by HDX-MS (Hydrogen/deuterium exchange-mass spectrometry) technique. HDX-MS analysis methods are described in the following articles; Houde D, Engen J R (2013) Methods Mol. Biol. 988: 269-89 and Houde et al. (2011) J. Pharm. Sci. 100 (6), 2071.
# Recombinant hAng2-RBD protein was used to analyze the epitopes of antibodies 2C8 and 4B9. […] The prepared hAng2-RBD/antibody complexes were diluted 15 times with deuterium labeling buffer, labeled at various time, and then quenched with the same volume of quenching buffer. The labeling reaction time was 0 min (undeuterium), 0.33 min, 10 min, 60 min and 240 min. However, in undeuterium condition, the deuterium labeling buffer was replaced with equilibrium buffer and the reaction was immediately stopped with quenching buffer. For mass spectrometry, the deuterium labeled hAng2-RBD/antibody samples were loaded on a pepsin column and peptide digestion was proceeded.
# The deuterium uptake difference between hAng2-RBD alone and the hAng2-RBD-antibody complex conditions was comparatively analyzed, and a region showing a distinct decrease in the deuterium uptake is either a peptide to which the antibody binds directly, or a structurally changed region. When the deuterium uptake difference between hAng2-RBD alone and the hAng2-RBD-antibody complex was 0.5-1 Da or more, it was considered significant.
# In the case of antibody 4B9, it cannot be ruled out that an undetermined region (residues 25 to 40 of SEQ ID NO: 2) can be included in the scope of the epitope. The epitope analysis results for each antibody are shown in different colors on the 3D structure of hAng2-RBD, which was generated using PyMol software (FIG. 2).
molecule,measurement,setting,value
B1,Relative Uptake (Da) Δ,"residues 52-60 (SEQ ID NO: 2), exposure time 0.00 min",0.15 Da
same,Relative Uptake (Da) Δ,"residues 52-60 (SEQ ID NO: 2), exposure time 0.33 min",0.21 Da
same,Relative Uptake (Da) Δ,"residues 52-60 (SEQ ID NO: 2), exposure time 10.00 min",0.41 Da
same,Relative Uptake (Da) Δ,"residues 52-60 (SEQ ID NO: 2), exposure time 60.00 min",0.14 Da
same,Relative Uptake (Da) Δ,"residues 52-60 (SEQ ID NO: 2), exposure time 240.00 min",0.08 Da
same,Relative Uptake (Da) Δ,"residues 61-77 (SEQ ID NO: 2), exposure time 0.00 min",0.08 Da
same,Relative Uptake (Da) Δ,"residues 61-77 (SEQ ID NO: 2), exposure time 0.33 min",1.18 Da
same,Relative Uptake (Da) Δ,"residues 61-77 (SEQ ID NO: 2), exposure time 10.00 min",1.78 Da
same,Relative Uptake (Da) Δ,"residues 61-77 (SEQ ID NO: 2), exposure time 60.00 min",1.36 Da
same,Relative Uptake (Da) Δ,"residues 61-77 (SEQ ID NO: 2), exposure time 240.00 min",1.31 Da
same,Relative Uptake (Da) Δ,"residues 61-78 (SEQ ID NO: 2), exposure time 0.00 min",0.06 Da
same,Relative Uptake (Da) Δ,"residues 61-78 (SEQ ID NO: 2), exposure time 0.33 min",1.15 Da
same,Relative Uptake (Da) Δ,"residues 61-78 (SEQ ID NO: 2), exposure time 10.00 min",1.80 Da
same,Relative Uptake (Da) Δ,"residues 61-78 (SEQ ID NO: 2), exposure time 60.00 min",1.33 Da
same,Relative Uptake (Da) Δ,"residues 61-78 (SEQ ID NO: 2), exposure time 240.00 min",1.34 Da
same,Relative Uptake (Da) Δ,"residues 67-77 (SEQ ID NO: 2), exposure time 0.00 min",−0.12 Da
same,Relative Uptake (Da) Δ,"residues 67-77 (SEQ ID NO: 2), exposure time 0.33 min",0.89 Da
same,Relative Uptake (Da) Δ,"residues 67-77 (SEQ ID NO: 2), exposure time 10.00 min",1.58 Da
same,Relative Uptake (Da) Δ,"residues 67-77 (SEQ ID NO: 2), exposure time 60.00 min",1.21 Da
same,Relative Uptake (Da) Δ,"residues 67-77 (SEQ ID NO: 2), exposure time 240.00 min",1.07 Da
same,Relative Uptake (Da) Δ,"residues 67-78 (SEQ ID NO: 2), exposure time 0.00 min",0.30 Da
same,Relative Uptake (Da) Δ,"residues 67-78 (SEQ ID NO: 2), exposure time 0.33 min",0.95 Da
same,Relative Uptake (Da) Δ,"residues 67-78 (SEQ ID NO: 2), exposure time 10.00 min",1.66 Da
same,Relative Uptake (Da) Δ,"residues 67-78 (SEQ ID NO: 2), exposure time 60.00 min",1.33 Da
same,Relative Uptake (Da) Δ,"residues 67-78 (SEQ ID NO: 2), exposure time 240.00 min",1.04 Da
same,Relative Uptake (Da) Δ,"residues 78-84 (SEQ ID NO: 2), exposure time 0.00 min",0.00 Da
same,Relative Uptake (Da) Δ,"residues 78-84 (SEQ ID NO: 2), exposure time 0.33 min",−0.01 Da
same,Relative Uptake (Da) Δ,"residues 78-84 (SEQ ID NO: 2), exposure time 10.00 min",0.01 Da
same,Relative Uptake (Da) Δ,"residues 78-84 (SEQ ID NO: 2), exposure time 60.00 min",0.11 Da
same,Relative Uptake (Da) Δ,"residues 78-84 (SEQ ID NO: 2), exposure time 240.00 min",0.36 Da
same,epitope of hAng2-RBD to which the antibody binds,deuterium uptake difference 0.5-1 Da or more considered significant,residues 61 to 78 of SEQ ID NO: 2
